Reference: the supplement of paper PMC9170038

Columns and labels:
Conditions in all cases: FMN input: 0 or 200 uM; Eterna round: R93 (includes R88 designs)
MS2 coat protein [1] = test: apparent KD of MS2 coat protein, switch ON state; designed switch direction (-1 OFF switch, 1 ON switch): 1; higher = weaker reporter binding
In short: (§1)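 Values are apparent KD, taken as the median for each design of fits to normalised binding curves from individual clusters. The designed RNA switches were transcribed on-chip from Illumina sequencing clusters and exposed to SNAP-549-labelled MS2 coat protein at twofold increasing amounts from 0.7 or 1.5 nM to 3 µM. Titration used 100 mM Tris-HCl pH 7.5, 80 mM KCl and 4 mM MgCl2, without or with constant ligand.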

MS2 coat protein [2] = test: apparent KD of MS2 coat protein, switch OFF state (with FMN for OFF switches, without FMN for ON switches); designed switch direction (-1 OFF switch, 1 ON switch): 1; higher = weaker reporter binding
In short: as §1

MS2 coat protein [3] = test: apparent KD of MS2 coat protein, switch ON state; designed switch direction (-1 OFF switch, 1 ON switch): -1; higher = weaker reporter binding
In short: as §1

MS2 coat protein [4] = test: apparent KD of MS2 coat protein, switch OFF state (with FMN for OFF switches, without FMN for ON switches); designed switch direction (-1 OFF switch, 1 ON switch): -1; higher = weaker reporter binding
In short: as §1

| Sequence | apparent KD of MS2 coat protein (MS2 coat protein [1]) [nM] | apparent KD of MS2 coat protein (MS2 coat protein [2]) [nM] | apparent KD of MS2 coat protein (MS2 coat protein [3]) [nM] | apparent KD of MS2 coat protein (MS2 coat protein [4]) [nM] |
| --- | --- | --- | --- | --- |
| AAAAAAAAAACUCAGGAUAUAGAUUGUUGAACAUGAGGAUCACCCAUGUAGUGAAAAGCGAAAAACUAGAAGGGAGGAAAAAAAAA [SameState2-03] | 30.5 | 63.3 | – | – |
| AAAAAAAAAGUCGAGGAUAUCCACAUGGUGACAUGAGGAUCACCCAUGUGAAGAAAAGCACAUGAGGAGAAGGCGACAAAAAAAA [Same State 2.7b (Tightrope mod)] | 135 | 1110 | – | – |
| AAAAAACAUGAGGAUCACCCAUGUAAAAAAAUGGGAGGAUAUACAAAGACGAAAGUCAAAGUAGAAGGCCUGAAAA [same state 4] | 29.8 | 105 | – | – |
| AAAAAACAUGAGGAUCACCCAUGUCAAAAGACGUGAGGAUAUGUACAGACUUCGGUCUGUACAGAAGGCACGUAAA [SS1 - 1039] | 15.7 | 25.7 | – | – |
| AAAAAACAUGAGGAUCACCCAUGUCGAAAGACGUGAGGAUAUGUACAGACUUCGGUCUGUACAGAAGGCACGAAAA [SS1 - 1038] | 18.5 | 60.4 | – | – |
| AAAAAACAUGAGGAUCACCCAUGUCGAAAGACGUGAGGAUAUGUACAGACUUCGGUCUGUACAGAAGGCACGUCAA [SS1 - 1044] | 17.3 | 24.8 | – | – |
| AAAAAACAUGAGGAUCACCCAUGUGAAAAUAUGGGAGGAUAUACAAACACGAAAGUGAAAGUAGAAGGCCUAAAAA [SS! MT 16] | 19.7 | 167 | – | – |
| AAAAAACAUGAGGAUCACCCAUGUGAGAACAUGGGAGGAUAUACGAAGACGAAAGUCGAAGUAGAAGGCCUAAAAG [Garnet 79] | 994 | 91.2 | – | – |
| AAAAAAUAAAAAAAGGAUAUAAAAGGUAGUACAUGAGGAUCACCCAUGUUCUACCAAAAAAUAAAAAAGAAGGAAAAAUAAAAAA [SS2: MS2 15] | 17.6 | 16.4 | – | – |
| AAAACACAUGAGGAUCACCCAUGUGCCUAACUCGCAGGAUAUUUCUCGAUUAAAUGAUAGGAAGAAGGGUGAUAAA [Nob's Hobby 37 - Jieux - Same State 1] | 110 | 39.4 | – | – |
| AAAAGACAUGAGGAUCACCCAUGUAAAAACGUAGGAGGAUAUGUCUUGAAAAAAGACUUGACAGAAGGCCUGUGUC [SS1 - 53] | 23 | 34.6 | – | – |
| AAAAGACAUGAGGAUCACCCAUGUAAAGACGUAGGAGGAUAUGUCGUGAAAAAAGACUUGGCAGAAGGCCUGUGUC [SS1 - 40] | 21.4 | 26.6 | – | – |
| AAAAGACAUGAGGAUCACCCAUGUCAAAACGUAGGAGGAUAUGUAUGGAAAACAUGCUGUACAGAAGGCCUGUGUC [SS1 - 28] | 14.2 | 17 | – | – |
| AAAAGACAUGAGGAUCACCCAUGUCAAAAGACAUGAGGAUAUGUACAGACUUCGGUCUGUACAGAAGGCAUGUAAA [SS1 - 1069] | 16.3 | 21.6 | – | – |
| AAAAGACAUGAGGAUCACCCAUGUGAAAACGUAGGAGGAUAUGUCGUGAAAAAAGACUUGGCAGAAGGCCUGUGUC [SS1 - 43] | 47 | 90.7 | – | – |
| AAAAGACAUGAGGAUCACCCAUGUGAAAACGUGCGAGGAUAUGUAUGGAAACUAUACUGUACAGAAGGCGCGUGUC [SS1 - 82] | 19.7 | 25.4 | – | – |
| AAAAGGGCGACACAGGAUAUGUUGACCCUAACAUGAGGAUCACCCAUGUGCAUUUAGGGUCGUGCGCAGAAGGGUGCAGCUCGGA [Enatin] | 21.1 | 41.8 | – | – |
| AAAAUACAUGAGGAUCACCCAUGUGAGAAAAACGCAGGAUAUGCCCGUUGAAAAAGGCGGGCAGAAGGGUGCCGAA [SameState1-III] | 69.8 | 50.6 | – | – |
| AAACCACAUGAGGAUCACCCAUGUGAAAAAAAUACAGGAUAUGGAAACACGAAAGUGAAACCAGAAGGGUGAAAAA [77%, Mat - Mod of Eli, 28] | 13.4 | 16.6 | – | – |
| AAAGAAGAAAGUCAGGAUAUGGAUGGGUAAACAUGAGGAUCACCCAUGUAUAAGAAAGAAAGAAACCAGAAGGGACAAAAGAAAA [Artaxerxes III] | 34.6 | 135 | – | – |
| AAAGACACAGUGCAGGAUAUAGUAAUAGUCACAUGAGGAUCACCCAUGUUCUUUUAUAAGAACGAUUAGAAGGGCGGUGAAAAAA [SameState2 Malc#11] | 161 | 383 | – | – |

| Sequence | apparent KD of MS2 coat protein (MS2 coat protein [1]) [nM] | apparent KD of MS2 coat protein (MS2 coat protein [2]) [nM] | apparent KD of MS2 coat protein (MS2 coat protein [3]) [nM] | apparent KD of MS2 coat protein (MS2 coat protein [4]) [nM] |
| --- | --- | --- | --- | --- |
| AAAGACAUGGUGUAGGAUAUAUUAAUAGUCACAUGAGGAUCACCCAUGUUCAGAUAUCUGAACGAGUAGAAGGACGAUGAAAAAA [SameState2 Malc#4] | 251 | 130 | – | – |
| AAAUAAAGGACUGAGGAUAUACCACAUGAAACAUGAGGAUCACCCAUGUAGAAAUACAGAGGGUGGUAGAAGGCAGUCCACAAAC [Same State 2.5h ( so lets mod hyphema)] | 30.1 | 57.2 | – | – |
| AAAUAAAGGACUGAGGAUAUACCACAUGAAACAUGAGGAUCACCCAUGUUAAAAAACAGAGGGUGGUAGAAGGCAGUCCACAAAC [Same State 2.5e ( so lets mod hyphema)] | 17.9 | 15.8 | – | – |
| AAAUAGUGCCUGGAGGAUAUGUCGCAUGACACAUGAGGAUCACCCAUGUGGUAACACAGAGGGUGGCAGAAGGCUGGGUGCAAAC [Mod 4 of Pariah 6 (Round1) by Hyphema] | 27.4 | 260 | – | – |
| AACAACAAUAUGAAGGAUAUCCACAACAAGACAUGAGGAUCACCCAUGUAAACUUAGAACAUACAGGAGAAGGUCAAGGGUGAAU [JR_SS002_Sub1204] | 221 | 63.2 | – | – |
| AACAAUCUAUCUGAGGAUAUAUGUCGAAAGACAUGAGGAUCACCCAUGUGAAAACAUGAAAAAACAUAGAAGGCAGAUAGAUUGA [SS2: 1136] | 28.5 | 54.3 | – | – |
| AACAAUCUAUCUGAGGAUAUCAUGUCAAAGACAUGAGGAUCACCCAUGUAGCAGGAAACUGCUUAUGAGAAGGCAGAUAGAUUGA [SS2: 1114] | 69.4 | 450 | – | – |
| AACAAUCUAUCUGAGGAUAUCAUGUCAAAGACAUGAGGAUCACCCAUGUGCAGGAAAACUGCUCAUGAGAAGGCAGAUAGAUUGA [SS2: 1110] | 464 | 167 | – | – |
| AACUAACAUGAGGAUCACCCAUGUAUUCAAACAUGAGGAUAUAUAACACAUCAUCGACGGAUAGAAGGCAUAAAUA [JR_SS001_Sub1206] | 92 | 86.6 | – | – |
| AACUACAUUAUGAAGGAUAUCCACAUCAAGACAUGAGGAUCACCCAUGUAAACUUAGAACAUACAGGAGAAGGUCAAGGGUGAAU [JR_SS002_Sub1206] | 234 | 69.2 | – | – |
| AAGAAAAAAAGGCAGGAUAUCCAAAAAAAAACAUGAGGAUCACCCAUGUAAAAAUAAAAAAAAUGGGAGAAGGGCCAAAAAAGAA [Mat - Same State 2 - Mod - 154] | 13.8 | 22.1 | – | – |
| AAGAAACAUGAGGAUCACCCAUGUAAGAAUAUGGGAGGAUAUGCGAAAAGAAACAAAGAAGCAGAAGGCCUAAGAA [75%, Ex5 sub 1, 5] | 26.6 | 57.6 | – | – |
| AAGAAACAUGAGGAUCACCCAUGUAGAAAUAUGGGAGGAUAUACAAGGACGUAAGUCAAGGUAGAAGGCCUAAGAA [Mat - Same State 1 - Meechl mod - D135] | 26 | 97 | – | – |
| AAGAAACAUGAGGAUCACCCAUGUGAGAAAAACACAGGAUAUGCAAAAGAAAGAAAGAAAGCAGAAGGGUGAAGAA [Mat - Same State 1 - Tesla mod - 52] | 22.5 | 74 | – | – |
| AAUAAACAUGAGGAUCACCCAUGUUUUAAUAGUUGAGGAUAUAAGGGUGAAAAUAGCAUAUUAGAAGGCGAGUGUA [SameState1 Malc#14] | 32.7 | 31.7 | – | – |
| AAUAAUUAUACGAAGGAUAUCGGUAAUUAGACAUGAGGAUCACCCAUGUAAUAAGGUUAAAUAAACGAGAAGGUCGAGGGUGAAA [JR_SS002_Sub501] | 66.9 | 41.5 | – | – |
| AAUACACAUGGUCAGGAUAUCGCAGCUAGGACAUGAGGAUCACCCAUGUCGCACGUAACCGUAACCGAGAAGGGACAGGGUGACC [JR_SS002_Sub409] | 36.9 | 15.2 | – | – |
| AAUACACAUGGUCAGGAUAUCGCAGCUAGGACAUGAGGAUCACCCAUGUCGCACGUAACCGUAACCGAGAAGGGACAGGGUGAUC [JR_SS002_Sub410] | 21.8 | 34 | – | – |
| AAUACACAUGGUCAGGAUAUCGCAGCUAGGACAUGAGGAUCACCCAUGUCGCAUGUAACUGUAACCGAGAAGGGACAGGGUGAUC [JR_SS002_Sub411] | 123 | 92.6 | – | – |
| UCGAUGUCAGGAUAUGUGUAAAGAAUAAAACAAAUAACAACACAGAAGGGACAUGAGGAUCACCCAUGUUACGA [May 42] | – | – | 42.2 | 86.2 |
| UUAGAACAUGAGGAUCACCCAUGUGAGGAUAUGCAAUACUAAAAUUAAGAUAAUUAUAGCAGAAGGCACGUAGU [JR_EXc001_Sub804] | – | – | 33.2 | 40.9 |
